Test [1] deals with T1, Grb2-Alexa Fluor 647 (UniProt P62993 1-217, Alexa Fluor 647 (site not stated)). Kind of test: ITC.
Test [2] addresses T1, Grb2-Alexa Fluor 647. Kind of test: single-molecule dwell time analysis.

T1 sequence (P62993 whole entry): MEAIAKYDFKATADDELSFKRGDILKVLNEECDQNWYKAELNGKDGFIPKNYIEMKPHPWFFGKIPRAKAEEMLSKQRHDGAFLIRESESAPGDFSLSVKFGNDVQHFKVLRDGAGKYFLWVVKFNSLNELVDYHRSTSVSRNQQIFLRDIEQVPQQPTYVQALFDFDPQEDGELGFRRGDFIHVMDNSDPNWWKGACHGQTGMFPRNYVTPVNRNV

B1: LAT-FFFY (monovalent LAT1Y, residue 48-233), phosphorylated (domain or fragment)
chain: GIQFKRPHTVAPWPPAFPPVTSFPPLSQPDLLPIPRSPQPLGGSHRTPSSRRDSDGANSVASFENEEPACEDADEDEDDFHNPGFLVVLPDSTPATSTAAPSAPALSTPGIRDSAFSMESIDDFVNVPESGESAEASLDGSREFVNVSQELHPGAAKTEPAALSSQEAEEVEEEGAPDYENLQELN
modifications: phosphotyrosine at Y226; Alexa Fluor 568 (site not stated)
One may read the Kd as the concentration at which binding is half-saturated. A low value points to a tighter complex. One may read the koff as the rate constant with which the complex falls apart. High values mean fast dissociation, low ones slow dissociation. The molecule B1 yielded an equilibrium dissociation constant (Kd) with Grb2-Alexa Fluor 647 [1] of 459 nM. The same molecule returned a koff with Grb2-Alexa Fluor 647 [2] of 1.4 s⁻¹.

B2: LAT-FFYF (monovalent LAT1Y, residue 48-233), phosphorylated (domain or fragment)
chain: GIQFKRPHTVAPWPPAFPPVTSFPPLSQPDLLPIPRSPQPLGGSHRTPSSRRDSDGANSVASFENEEPACEDADEDEDDFHNPGFLVVLPDSTPATSTAAPSAPALSTPGIRDSAFSMESIDDFVNVPESGESAEASLDGSREYVNVSQELHPGAAKTEPAALSSQEAEEVEEEGAPDFENLQELN
modifications: phosphotyrosine at Y191; Alexa Fluor 568 (site not stated)
In turn, B2 yielded a Kd in the test with Grb2-Alexa Fluor 647 [1] of 195 nM. Further, the dissociation rate constant (koff) with Grb2-Alexa Fluor 647 [2] stood at 3.3 s⁻¹.

Values taken from article PMC5761276 (Journal of the American Chemical Society, 2017).
